Assays:
[1] = biological target: E. coli MRE600 tight-couple 70S ribosome (natural), translating the V50 hairpin mRNA (E. coli (endogenous in MRE600)) (UniProt P0A7K2); experiment: optical tweezers with single-molecule fluorescence detection (fleezers); hairpin unwinding assay as a1, GDPNP:GTP ratio 1:9 at constant total nucleotide concentration; slow population of a bi-exponential fit
[2] = biological target: E. coli MRE600 tight-couple 70S ribosome (natural), translating the V50 hairpin mRNA (E. coli (endogenous in MRE600)) (UniProt P0A7K2); experiment: optical tweezers with single-molecule fluorescence detection (fleezers); hairpin unwinding assay as a1, with a mixture of 1 mM GTP and 0.5 mM GDPNP; slow population of a bi-exponential fit
[3] = biological target: S16-biotinylated E. coli 70S ribosome, translating the hairpin-less mRNA (E. coli) (UniProt P0A7K2); experiment: optical tweezers with single-molecule fluorescence detection (fleezers); assisting force assay; ribosome tethered by biotinylated S16 to one bead and the 5' end of a hairpin-less mRNA to the other, 9-12 pN; Cy3-labeled EF-G in solution, GTP (1 mM stated for the H92Q and H92A mutants), 1x TLC buffer
[4] = biological target: E. coli MRE600 tight-couple 70S ribosome (natural), translating the V50 hairpin mRNA (E. coli (endogenous in MRE600)) (UniProt P0A7K2); experiment: optical tweezers with single-molecule fluorescence detection (fleezers); hairpin unwinding assay as a1, GDPNP:GTP ratio 3:1 at constant total nucleotide concentration; slow population of a bi-exponential fit
[5] = biological target: E. coli MRE600 tight-couple 70S ribosome (natural), translating the V50 hairpin mRNA (E. coli (endogenous in MRE600)) (UniProt P0A7K2); experiment: optical tweezers with single-molecule fluorescence detection (fleezers); hairpin unwinding assay; ribosome stalled on the V50 mRNA hairpin tethered between two beads at ~14 pN (13.5-14.5 pN); 10 nM Cy3-labeled EF-G in the translation mix, 1 mM GTP, 1x TLC buffer (40 mM HEPES pH 7.5, 60 mM NH4Cl, 10 mM Mg(OAc)2, 6 mM βME)
[6] = biological target: E. coli MRE600 tight-couple 70S ribosome (natural), translating the V50 hairpin mRNA (E. coli (endogenous in MRE600)) (UniProt P0A7K2); experiment: optical tweezers with single-molecule fluorescence detection (fleezers); hairpin unwinding assay as a1, with a mixture of 1 mM GTP and 0.5 mM GTPγS; slow population of a bi-exponential fit

τ release, slow (GDPNP) population [1] [s]	τ release, slow (GDPNP) population [2] [s]	mean total dwell time of EF-G on the ribosome (τpre + τ post) [3] [ms]	τ release, slow (GDPNP) population [4] [s]	mean dwell time of unproductive binding events (τ unproductive) [5] [ms]	mean total dwell time of EF-G on the ribosome (τ unwinding + τ release) [5] [ms]	τ release (time between hairpin unwinding and EF-G release) [5] [s]	τ release, slow (GTPγS) population [6] [s]	τ post (time between the mRNA step and EF-G unbinding) [3] [s]	Substance
2.5	8.5	308	17	300	445	0.38	1.8	–	Cy3-labeled EF-G, single-cysteine variant EF-G(S73C) (from UniProt P0A6M8 1-704) (enzyme)
–	–	–	–	–	–	20	–	> 20	Cy3-labeled H92A EF-G (made from EF-G(S73C)) (from UniProt P0A6M8 1-704) (enzyme)
–	–	–	–	–	–	2	–	–	Cy3-labeled H92Q EF-G (made from EF-G(S73C)) (from UniProt P0A6M8 1-704) (enzyme)

Reference: paper PMC12775393
